Assay results from patent US20120264231A1, “ASSAY FOR ORAI CALCIUM CHANNEL REGULATORS” (IMMUNE DISEASE INSTITUTE, INC., priority 2009, published 2012).

Molecular target: T1, GST-ORAI1 (65-87) (Homo sapiens, UniProt Q96D31)
T1 construct: A plasmid encoding ORAI1 (65-87) as a GST fusion protein; made in house; host or cells: E. coli BL21 (DE3), pGEX-2T
Assay: GST pull down assay with GST-ORAI1 (65-87)
Assay type: binding
Excerpt: A conserved region of ORAI1 immediately preceding, and extending into, ORAI1 transmembrane segment 1 is implicated in channel opening (Feske et al., Nature 441: 179-185 (2006); Li et al., J. Biol. Chem. 282: 29448-29456 (2007); Park et al., Cell 136: 876-890 (2009); Derler et al., J. Biol. Chem. 284: 15903-15915 (2009)), and GFP-ORAI1 (48-91) expressed in mammalian cells co-immunoprecipitates with STIM1 (342-448) (Park et al., Cell 136: 876-890 (2009)). Here again, the protein-protein interaction is direct, because purified recombinant STIM1CT bound to purified GST-ORAI1 (65-87) (FIG. 2C).
The cDNAs encoding mouse STIM 1^CT fragments (residues 233-685, 233-666, 233-600, 233-531, 233-498, or 233-463) were amplified via PCR and cloned into the pProEX HTb vector (Invitrogen) between the BamHI and XhoI sites for expression as His-tagged proteins. For production of the C-terminal cytoplasmic tail of ORAI 1 as a GST fusion protein, coupled to GST through the flexible linker—GSGSRGSPEF—(SEQ ID NO: 1), cDNA encoding ORAI1 residues 259-301 was amplified using PCR and cloned into the pGEX-4T-1 vector (GE Healthcare) between the BamHI and NotI sites. A plasmid encoding ORAI1 (65-87) as a GST fusion protein with the linker—GSGGGS—(SEQ ID NO: 9) was produced by inserting the corresponding Cdna into the pGEX-2T vector (GE Healthcare). […]

T1 sequence (Q96D31 65-87 limits assumed): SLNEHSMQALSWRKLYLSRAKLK

STIM1^CT: cytoplasmic region of STIM1, mouse residues 233-685, His-tagged recombinant protein expressed in E coli
binding to purified GST-ORAI1 (65-87): bound
strength of interaction compared with STIM1^CT-ORAI1^CT interaction: weaker
